For one test, the target named is α17 Q1717A. As to the kind of experiment: FP.
The target in the next test is α17 Y1713A. As to the kind of experiment: FP.
Another test addresses α17 Q1720A. Kind of test: FP.
The target of another test is α17 F1716A. As to the kind of experiment: FP.
Another test has as its target α17 L1709A. As to the kind of experiment: FP.
The target in a further test is α17 F1718A. As to the kind of experiment: FP.
The target of a further test is α17 D1723K. Kind of test: FP.
A further test deals with α17 D1722K. As to the kind of experiment: FP.
Test [1] addresses PfEMP1 ATS-Core of variant PFF0845c (P. falciparum). Kind of test: NMR; 50 mM NaCl, 25°C.

B1: PfEMP1 ATS of variant PFF0845c, fluorescently labeled (H159C) (domain or fragment)
chain: KKKTKSTIDLLRVINIPKGDYGIPTMKSKNRYVPYKSGQYNGKKYIYMEGDESDDYTYIGDISSSDITSSESEYEDIDINNIYPYKSPKYKTLIDVVLEPSKRDTFNTQSDIPSDTSTNKFTDNEWNQLKQDFISNISQNSQMDLPKNNISGNIQMDTCPHVNILDDSMQEKPFITSIHDRDLHNGEEVTYNINLDDHKNMNFSTNHDNIPPKNDQNDLYTGIDLINDSISGNHNVNIYDELLKRKENELFGTNHTKHTTTNIVAKQTHNDPIVNQINLFHKWLDRHRNMCEQWDKNKKEELLDKLNEEWNKENKNNSNVTDTNGENNITRVLNSDVSIQIDMNSKPI
modifications: fluorescein (5-FAM; fluorescein-5-maleimide) on the introduced cysteine C159
By Kd is commonly meant the concentration at which binding is half-saturated. As to B1, the Kd is 28 µM in the test with α17 Q1717A; 63 µM with α17 Y1713A; 41 µM in the test with α17 Q1720A; 300 µM with α17 F1716A; 140 µM in the test with α17 L1709A; 63 µM with α17 F1718A. In addition, the Kd in the test with α17 D1723K was determined as 35 µM; with α17 D1722K, 60 µM.

B2: spectrin α chain domain 17 (domain or fragment)
chain: AHHEKLKEAYALFQFFQDLDDEESWIEEKLIRVSSQDYGRDLQGVQNLLKKHKRLEGELVAHEPAIQNVLDMAEKLKDKAAVGQEEIQLRLAQFVEHWEKLKELAKARGLKLEESLEYLQFMQNA
Consider B2, for which the dissociation constant Kd in [1] is 350 µM.
